# Results: PMC9557913 (Molecular cell, 2022)
# T1: MCU, Q8NE86
# T1 chain: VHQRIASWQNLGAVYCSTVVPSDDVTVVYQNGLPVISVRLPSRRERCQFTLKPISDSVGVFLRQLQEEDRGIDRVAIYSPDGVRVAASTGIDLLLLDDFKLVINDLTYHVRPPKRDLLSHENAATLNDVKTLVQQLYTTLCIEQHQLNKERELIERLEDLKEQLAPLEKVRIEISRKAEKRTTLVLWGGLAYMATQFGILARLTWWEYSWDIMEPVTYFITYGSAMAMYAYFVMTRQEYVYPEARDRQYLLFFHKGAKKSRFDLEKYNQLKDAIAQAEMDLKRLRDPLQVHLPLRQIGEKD
# B1: disulfide-connected MICU1-MICU1 homodimer (MICU1-1D), Q9BPX6 34-476 (complex)
# chain: MMVAFLGASAVTASTGLLWKRAHAESPPCVDNLKSDIGDKGKNKDEGDVCNHEKKTADLAPHPEEKKKKRSGFRDRKVMEYENRIRAYSTPDKIFRYFATLKVISEPGEAEVFMTPEDFVRSITPNEKQPEHLGLDQYIIKRFDGKKISQEREKFADEGSIFYTLGECGLISFSDYIFLTTVLSTPQRNFEIAFKMFDLNGDGEVDMEEFEQVQSIIRSQTSMGMRHRDRPTTGNTLKSGLCSALTTYFFGADLKGKLTIKNFLEFQRKLQHDVLKLEFERHDPVDGRITERQFGGMLLAYSGVQSKKLTAMQRQLKKHFKEGKGLTFQEVENFFTFLKNINDVDTALSFYHMAGASLDKVTMQQVARTVAKVELSDHVCDVVFALFDCDGNGELSNKEFVSIMKQRLMRGLEKPKDMGFTRLMQAMWKCAQETAWDFALPKQ
# modifications: here or on the partner: intersubunit disulfide through C463
# B2: purified MBP-fused human MICU1 (MICU1-1ND) (natural protein, UniProt Q9BPX6 34-476, looked up)
# chain: B1 chain
# B3: purified human MICU2 (MICU2-2ND) (natural protein, UniProt Q8IYU8 23-434, looked up)
# chain: AVSRQAVRSPGPLAAAVAGAALAGAGAAWHHSRVSVAARDGSFTVSAQKNVEHGIIYIGKPSLRKQRFMQFSSLEHEGEYYMTPRDFLFSVMFEQMERKTSVKKLTKKDIEDTLSGIQTAGCGSTFFRDLGDKGLISYTEYLFLLTILTKPHSGFHVAFKMLDTDGNEMIEKREFFKLQKIISKQDDLMTVKTNETGYQEAIVKEPEINTTLQMRFFGKRGQRKLHYKEFRRFMENLQTEIQEMEFLQFSKGLSFMRKEDFAEWLLFFTNTENKDIYWKNVREKLSAGESISLDEFKSFCHFTTHLEDFAIAMQMFSLAHRPVRLAEFKRAVKVATGQELSNNILDTVFKIFDLDGDECLSHEEFLGVLKNRMHRGLWVPQHQSIQEYWKCVKKESIKGVKEVWKQAGKGLF
# Assays:
# MCU, Q8NE86 = target: T1, MCU, Q8NE86; assay: co-IP; conditions: remark: other sources report otherwise
# SEC = target: the molecule itself; assay: SEC
Binder,"fold co-precipitated with MCU, against MICU1-2D (MCU, Q8NE86) [fold]",stoichiometry N (SEC)
B1,2,–
B2,–,2
B3,–,2
